According to article PMC7592119 (Science (New York, N.Y.), 2019):

Target: truncated cycD1 (16-267) (human, UniProt P24385 16-267)
Assay: crystal structure

truncated cycD1 (16-267), sequence (P24385 16-267): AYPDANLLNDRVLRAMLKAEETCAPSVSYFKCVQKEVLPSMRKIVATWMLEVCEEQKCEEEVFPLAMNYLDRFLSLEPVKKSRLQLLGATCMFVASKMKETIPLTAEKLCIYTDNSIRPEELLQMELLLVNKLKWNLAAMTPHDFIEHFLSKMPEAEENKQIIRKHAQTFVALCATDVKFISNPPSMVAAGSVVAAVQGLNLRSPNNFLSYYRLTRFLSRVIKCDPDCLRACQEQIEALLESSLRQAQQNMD

B1: p27(3E) (p27^KID 25-93 with glutamate phosphomimetics at Y74, Y88 and Y89) (domain or fragment, human, UniProt P46527 25-93, looked up)
chain: KPSACRNLFGPVDHEELTRDLEKHCRDMEEASQRKWNFDFQNHKPLEGKEEWQEVEKGSLPEFEERPPR
  binding result: binds
